Source: publication PMC11969024 (2025)

B1: peptide HD2 (from tick evasin EVA4) / CXCL14 (biotinylated, synthetic) (parent complex)
chain 1: EEDDYTAYAPLTCYFT
chain 2: SKCKCSRKGPKIRYSDVKKLEMKPKYPHCEEKMVIITTKSVSRYRGQEHCLHPKLQSTKRFIKWYNAWNEKRRVYEE

Variants of: B1

Q: How did the enrichment turn out when chain 1 EEDFYTAYAPLTCYFT was run?
A: The enrichment was -0.493 log2 (difference from the parental peptide).

Q: With chain 1 EEDMYTAYAPLTCYFT as the variant, how does the enrichment read?
A: Its enrichment is -6.89 log2 (difference from the parental peptide).

Q: chain 1 EEDDYTAYAPLTCYFL was tested. Which enrichment did it give?
A: The enrichment was 1.24 log2 (difference from the parental peptide).

Q: With chain 1 EEDDYTAYAPLTCYFS as the variant, how does the enrichment read?
A: Its enrichment is -5.85 log2 (difference from the parental peptide).

Q: chain 1 EEDDYTAYAPLTCYFI was tested. Which enrichment did it give?
A: The enrichment was 0.982 log2 (difference from the parental peptide).

Q: With chain 1 EEDDYTAYAPLTCYFH as the variant, how does the enrichment read?
A: The enrichment was 3.56 log2 (difference from the parental peptide).

Q: chain 1 EEDDYTAYAPLTCYFW was tested. Which enrichment did it give?
A: The enrichment was 2.14 log2 (difference from the parental peptide).

Q: chain 1 EEDDYTAYAPLTCYFG was tested. Which enrichment did it give?
A: Its enrichment is 2.47 log2 (difference from the parental peptide).

Q: chain 1 EEDDYTAYAPLTSYFT was tested. Which enrichment did it give?
A: Its enrichment is -3.41 log2 (difference from the parental peptide).

Q: chain 1 EEDDYTAYAPLTNYFT was tested. Which enrichment did it give?
A: The enrichment was -4.88 log2 (difference from the parental peptide).

Q: How did the enrichment turn out when chain 1 EEIDYTAYAPLTCYFT was run?
A: Its enrichment is -8.12 log2 (difference from the parental peptide).

Q: Which enrichment does the source give for chain 1 EEYDYTAYAPLTCYFT here?
A: Its enrichment is 0.926 log2 (difference from the parental peptide).

Q: Which enrichment does the source give for chain 1 EEFDYTAYAPLTCYFT here?
A: Its enrichment is -3.03 log2 (difference from the parental peptide).

Q: With chain 1 EEGDYTAYAPLTCYFT as the variant, how does the enrichment read?
A: The enrichment was 1.82 log2 (difference from the parental peptide).

Q: chain 1 EEDDYTAYAPLTCVFT was tested. Which enrichment did it give?
A: The enrichment was -3.62 log2 (difference from the parental peptide).

Q: For chain 1 EEDDYTAYAPLTCCFT, which enrichment is on record?
A: Its enrichment is -4.99 log2 (difference from the parental peptide).

Q: Which enrichment does the source give for chain 1 EEDDYTAYAPLTCEFT here?
A: The enrichment was -0.269 log2 (difference from the parental peptide).

Q: For chain 1 QEDDYTAYAPLTCYFT, which enrichment is on record?
A: The enrichment was -2.86 log2 (difference from the parental peptide).

Q: Which enrichment does the source give for chain 1 EEDDWTAYAPLTCYFT here?
A: The enrichment was -1.34 log2 (difference from the parental peptide).

Q: Which enrichment does the source give for chain 1 EEDDFTAYAPLTCYFT here?
A: Its enrichment is -5.86 log2 (difference from the parental peptide).

Q: With chain 1 EEDDYTAYAPLDCYFT as the variant, how does the enrichment read?
A: The enrichment was -6.91 log2 (difference from the parental peptide).

Q: With chain 1 EEDDYTAYAPLNCYFT as the variant, how does the enrichment read?
A: Its enrichment is -6.02 log2 (difference from the parental peptide).

Q: With chain 1 EEDDYTAYAPLICYFT as the variant, how does the enrichment read?
A: Its enrichment is 3.47 log2 (difference from the parental peptide).

Q: For chain 1 EEDDYTAYAPLMCYFT, which enrichment is on record?
A: The enrichment was -4.31 log2 (difference from the parental peptide).

Q: For chain 1 EEDDYTAYAPLACYFT, which enrichment is on record?
A: The enrichment was -6.47 log2 (difference from the parental peptide).

Q: chain 1 EEDDYTSYAPLTCYFT was tested. Which enrichment did it give?
A: The enrichment was 1 log2 (difference from the parental peptide).

Q: For chain 1 EEDDYTRYAPLTCYFT, which enrichment is on record?
A: The enrichment was 1.24 log2 (difference from the parental peptide).

Q: For chain 1 EEDDYTTYAPLTCYFT, which enrichment is on record?
A: Its enrichment is -5.45 log2 (difference from the parental peptide).

Q: chain 1 EEDDYTGYAPLTCYFT was tested. Which enrichment did it give?
A: Its enrichment is 1.97 log2 (difference from the parental peptide).

Q: With chain 1 EVDDYTAYAPLTCYFT as the variant, how does the enrichment read?
A: The enrichment was -0.0348 log2 (difference from the parental peptide).

Q: How did the enrichment turn out when chain 1 EMDDYTAYAPLTCYFT was run?
A: Its enrichment is -6.07 log2 (difference from the parental peptide).

Q: With chain 1 EEDDYTAYADLTCYFT as the variant, how does the enrichment read?
A: The enrichment was -1.54 log2 (difference from the parental peptide).

Q: For chain 1 EEDDYTAYALLTCYFT, which enrichment is on record?
A: Its enrichment is 0.0771 log2 (difference from the parental peptide).

Q: With chain 1 EEDDYTAYAHLTCYFT as the variant, how does the enrichment read?
A: Its enrichment is 0.862 log2 (difference from the parental peptide).

Q: With chain 1 EEDDYTAYAELTCYFT as the variant, how does the enrichment read?
A: The enrichment was 3.27 log2 (difference from the parental peptide).

Q: chain 1 EEDDYTAYAPLTCYCT was tested. Which enrichment did it give?
A: Its enrichment is 1.14 log2 (difference from the parental peptide).

Q: Which enrichment does the source give for chain 1 EEDDYTAYAPLTCYLT here?
A: Its enrichment is -4.99 log2 (difference from the parental peptide).

Q: With chain 1 EEDDYTAYAPLTCYGT as the variant, how does the enrichment read?
A: Its enrichment is -8.03 log2 (difference from the parental peptide).

Q: For chain 1 EEDDYTAYAPLTCYWT, which enrichment is on record?
A: Its enrichment is -6.44 log2 (difference from the parental peptide).

Q: With chain 1 EEDDYTAYAPLTCYNT as the variant, how does the enrichment read?
A: Its enrichment is -3.99 log2 (difference from the parental peptide).

Q: chain 1 EEDDYTAYAPLTCYMT was tested. Which enrichment did it give?
A: Its enrichment is 0.3 log2 (difference from the parental peptide).

Q: With chain 1 EEDDYTAYAPRTCYFT as the variant, how does the enrichment read?
A: Its enrichment is -4.9 log2 (difference from the parental peptide).

Q: How did the enrichment turn out when chain 1 EEDDYTAYAPCTCYFT was run?
A: The enrichment was 0.549 log2 (difference from the parental peptide).

Q: chain 1 EEDDYTAYAPVTCYFT was tested. Which enrichment did it give?
A: Its enrichment is -0.136 log2 (difference from the parental peptide).

Q: chain 1 EEDDYTANAPLTCYFT was tested. Which enrichment did it give?
A: Its enrichment is -4.8 log2 (difference from the parental peptide).

Q: chain 1 EEDDYTALAPLTCYFT was tested. Which enrichment did it give?
A: Its enrichment is 0.358 log2 (difference from the parental peptide).

Q: Which enrichment does the source give for chain 1 EEDDYTAPAPLTCYFT here?
A: The enrichment was -6.13 log2 (difference from the parental peptide).

Q: For chain 1 EEDDYTAMAPLTCYFT, which enrichment is on record?
A: Its enrichment is 1.74 log2 (difference from the parental peptide).

Q: For chain 1 EEDDYEAYAPLTCYFT, which enrichment is on record?
A: Its enrichment is 2.79 log2 (difference from the parental peptide).

Q: How did the enrichment turn out when chain 1 EEDDYYAYAPLTCYFT was run?
A: Its enrichment is 3.46 log2 (difference from the parental peptide).

Q: How did the enrichment turn out when chain 1 EEDDYSAYAPLTCYFT was run?
A: The enrichment was -0.144 log2 (difference from the parental peptide).

Q: For chain 1 EEDDYKAYAPLTCYFT, which enrichment is on record?
A: Its enrichment is -5.43 log2 (difference from the parental peptide).

Q: With chain 1 EEDDYTAYQPLTCYFT as the variant, how does the enrichment read?
A: The enrichment was 3.77 log2 (difference from the parental peptide).

Q: With chain 1 EEDDYTAYNPLTCYFT as the variant, how does the enrichment read?
A: The enrichment was 4.16 log2 (difference from the parental peptide).

Q: With chain 1 EEDDYTAYVPLTCYFT as the variant, how does the enrichment read?
A: Its enrichment is -2.17 log2 (difference from the parental peptide).

Q: Which enrichment does the source give for chain 1 EEDDYTAYHPLTCYFT here?
A: Its enrichment is -6.47 log2 (difference from the parental peptide).
